B1: FAM107A (parent)
chain: HRRGLGVDSKPELQRVLEHRRRNQ

Variants of: B1
Experiment: protein stability index of a GFP-peptide fusion (GPS, HEK-293T) (PSI 1-6); higher = more stable
Details: c terminus: a fixed tail appended
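Note: lentivirally expressed fusions sorted by FACS into six bins by GFP to DsRed ratio, PSI derived from sequencing read proportions per bin multiplied by bin number.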

Protein stability index of substitutions, site by site:
H1: N 4.5 | R 4.55 | P 2 | V 4.43 | E 4.92 | L 4.8 | T 4.04 | A 3.52 | Y 4.12
P11: G 4.55 | H 4.35 | R 4.13 | M 3.99 | I 3.42 | T 3.51 | D 4.29 | A 4.05
G4: T 3.35 | S 3.63 | P 4.8 | Y 4.32 | E 5.08 | R 4.2 | H 4.3 | D 4.49
L17: H 4.34 | N 5.25 | K 4.53 | A 4.92 | S 4.79 | E 4.21
V7: K 4.33 | H 2.61 | A 3.74 | D 4.93 | R 4.39 | S 4.88
E18: D 3.29 | P 5.02 | Q 2.67 | R 4.12
R21: Y 3.98 | Q 4.38 | E 5.04 | T 3.48 | W 3.64 | N 4.74 | I 3.86 | M 4.09
L13: E 5.77 | N 5.21 | R 4.14 | F 4.75 | G 4.94 | A 4.31 | M 4 | H 4.93
Q24: E 4.59 | S 3.57 | P 2.74 | T 3.78 | N 4.19 | A 3.88 | M 2.88 | K 4.39 | D 3.81 | I 2.4 | W 2.73
R15: T 4.34 | Q 3.56 | P 4.89 | M 4.06 | W 3.21 | H 4.25 | D 4.26 | F 4.19
R22: G 3.64 | F 3.43 | K 4.46 | L 3.4
G6: D 2.51 | I 3.68 | Y 3.5 | K 2.56 | H 3.22 | A 1.82
N23: R 3.26 | C 2.37 | L 2.35 | F 4.65 | V 3.33 | E 3.52
L5: K 4.04 | M 4.52 | P 4.16 | V 3.46
R2: L 3.91 | D 5.11 | P 4.96 | C 4.78 | H 4.05 | I 3.4 | N 4.2
V16: H 3.96 | G 5.55 | T 3.71
R3: Q 3.65 | W 4.22 | E 4.2 | H 4.95 | V 4.74 | N 4.25 | T 4.92 | M 3.9 | I 4.29 | C 3.97
H19: D 5.29 | R 4.54 | L 4.45 | W 1.53
Q14: C 4.03 | P 4 | S 3.71 | I 2.75 | M 2.81 | Y 3.15 | F 3.62 | D 4.07
S9: L 4.15 | R 4.8 | K 4.76 | F 3.52 | E 4.39 | D 4.67 | Y 4.16 | H 4.46 | V 3.98
D8: N 3 | E 4.59 | Q 3.34 | H 3.74 | C 3.08 | S 2.41 | T 4.41 | M 3.18 | V 4.07
E12: W 3.5 | C 4.11 | K 4.18 | A 4.3
K10: E 4.55 | S 5.01 | W 2.6 | Q 4.92 | G 4.5 | M 4.27 | N 4.48 | C 3.82
R20: A 3.36 | W 3.47 | T 4.42 | P 4.59 | Q 3.96 | F 2.69 | L 3.31 | E 4.33 | C 4.53

Source: the supplement of paper PMC10567573
